In EP1019524B1:

Target: HeLa cell PP1α (cellular PP1α in S10 fractions of HeLa cells) (human) (UniProt P62136)
Assay: cell-based or functional assay

Chain of HeLa cell PP1α (cellular PP1α in S10 fractions of HeLa cells) (human) (P62136 2-330): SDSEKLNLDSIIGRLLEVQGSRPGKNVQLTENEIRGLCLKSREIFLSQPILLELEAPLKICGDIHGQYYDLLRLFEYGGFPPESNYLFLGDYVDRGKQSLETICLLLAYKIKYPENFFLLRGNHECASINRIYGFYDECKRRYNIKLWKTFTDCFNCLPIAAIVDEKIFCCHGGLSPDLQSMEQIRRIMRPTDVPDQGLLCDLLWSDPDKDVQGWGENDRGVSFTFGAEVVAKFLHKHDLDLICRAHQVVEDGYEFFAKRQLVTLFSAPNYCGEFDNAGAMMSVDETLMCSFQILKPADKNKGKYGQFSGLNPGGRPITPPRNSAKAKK

## γ134.5 protein of HSV-1(F), from lysates of HSV-1(F) infected cells (from UniProt P36313 1-248)
  32P-phosphorylase phosphatase activity of HSV-1(F)-infected cells against mock-infected cells (fold of mock-infected cells): 0.5
  eIF-2(α32P) phosphatase activity of S10 fractions of wild type infected HeLa cells against mock-infected cells: 3000 fold

## protein phosphatase Inhibitor 2
  50% reduction in the rate of dephosphorylation of eIF-2(α32P) by the S10 fraction from R8300 virus-infected cells: 120 µg/mL
  50% reduction in the rate of dephosphorylation of eIF-2(α32P) by the S10 fraction from wild-type virus-infected cells: 90 µg/mL

## γ134.5-MyD116 chimeric protein expressed by recombinant virus R8300 (from UniProt P36313 1-175; P17564 540-657)
  eIF-2(α32P) phosphatase activity of S10 fractions of R8300 infected HeLa cells against mock-infected cells: 50 fold
